Results published in PMC6555802.

Molecular target: CHML (fluorescence titration) (human) (UniProt P26374)
Experiment: other fluorescence titration; fluorescence titration assay (Supplementary Fig. 8); conditions not stated in the text shown

CHML (fluorescence titration) (human), sequence (P26374 whole entry): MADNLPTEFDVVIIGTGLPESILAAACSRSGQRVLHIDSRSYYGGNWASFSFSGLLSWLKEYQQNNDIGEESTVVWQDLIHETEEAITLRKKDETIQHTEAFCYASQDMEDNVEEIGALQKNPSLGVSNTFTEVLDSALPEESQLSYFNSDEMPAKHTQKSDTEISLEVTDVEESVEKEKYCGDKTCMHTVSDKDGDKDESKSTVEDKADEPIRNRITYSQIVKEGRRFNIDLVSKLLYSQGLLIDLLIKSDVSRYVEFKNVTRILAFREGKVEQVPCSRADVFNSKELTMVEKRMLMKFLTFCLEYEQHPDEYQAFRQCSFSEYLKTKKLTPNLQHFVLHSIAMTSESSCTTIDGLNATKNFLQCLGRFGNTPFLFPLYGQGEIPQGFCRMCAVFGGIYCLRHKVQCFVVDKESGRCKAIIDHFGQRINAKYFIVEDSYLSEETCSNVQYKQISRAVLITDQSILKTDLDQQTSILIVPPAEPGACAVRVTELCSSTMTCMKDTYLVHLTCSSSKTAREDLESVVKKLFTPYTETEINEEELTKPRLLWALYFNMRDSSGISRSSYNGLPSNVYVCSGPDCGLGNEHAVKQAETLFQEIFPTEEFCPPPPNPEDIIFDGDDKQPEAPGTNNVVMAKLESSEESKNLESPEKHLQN

- Kd: 7.84 nM
Substance: Rab7A (fluorescence titration) (from UniProt P51149 1-207) (natural protein)
